We go through one protein from PMC2843198 (The Journal of Biological Chemistry, 2010).

The series concerns the molecule itself. Put plainly: SEC.

B1: TAP-tagged Fun30 (Function unknown now 30) (enzyme, S. cerevisiae, UniProt P31380 1-1131, looked up)
chain: MSGSHSNDEDDVVQVPETSSPTKVASSSPLKPTSPTVPDASVASLRSRFTFKPSDPSEGAHTSKPLPSGSPEVALVNLAREFPDFSQTLVQAVFKSNSFNLQSARERLTRLRQQRQNWTWNKNASPKKSETPPPVKKSLPLANTGRLSSIHGNINNKSSKITVAKQKTSIFDRYSNVINQKQYTFELPTNLNIDSEALSKLPVNYNKKRRLVRADQHPIGKSYESSATQLGSAREKLLANRKYGRHANDNDEEEEESMMTDDDDASGDDYTESTPQINLDEQVLQFINDSDIVDLSDLSDTTMHKAQLIASHRPYSSLNAFVNTNFNDKDTEENASNKRKRRAAASANESERLLDKITQSIRGYNAIESVIKKCSSYGDLVTSQMKKWGVQVEGDNSELDLMNLGEDDDDDNDDGNNDNNNSNNNNTAGADATSKEKEDTKAVVEGFDETSAEPTPAPAPAPVERETKRIRNTTKPKVVEDEDDDVDLEAIDDELPQSEHEDDDYEEEDEDYNDEEEDVEYDDGDDDDDDDDEFVATRKNTHVISTTSRNGRKPIVKFFKGKPRLLSPEISLKDYQQTGINWLNLLYQNKMSCILADDMGLGKTCQVISFFAYLKQINEPGPHLVVVPSSTLENWLREFQKFAPALKIEPYYGSLQEREELRDILERNAGKYDVIVTTYNLAAGNKYDVSFLKNRNFNVVVYDEGHMLKNSTSERFAKLMKIRANFRLLLTGTPLQNNLKELMSLLEFIMPNLFISKKESFDAIFKQRAKTTDDNKNHNPLLAQEAITRAKTMMKPFILRRRKDQVLKHLPPKHTHIQYCELNAIQKKIYDKEIQIVLEHKRMIKDGELPKDAKEKSKLQSSSSKNLIMALRKASLHPLLFRNIYNDKIITKMSDAILDEPAYAENGNKEYIKEDMSYMTDFELHKLCCNFPNTLSKYQLHNDEWMQSGKIDALKKLLKTIIVDKQEKVLIFSLFTQVLDILEMVLSTLDYKFLRLDGSTQVNDRQLLIDKFYEDKDIPIFILSTKAGGFGINLVCANNVIIFDQSFNPHDDRQAADRAHRVGQTKEVNITTLITKDSIEEKIHQLAKNKLALDSYISEDKKSQDVLESKVSDMLEDIIYDENSKPKGTKE
Consider B1, for which the stoichiometry N (commonly a count of units in the complex or per binding partner) was 2.
